Data published in patent US20120283317A1 (University of California, published 2012).

Experiments:
[1] = biological target: the molecule itself; assay: blue-native gel, PNPASE immunoblot (self-assembly)
Protocol: Listed are the in vitro effects of mutations on 3′ polymerase and RNA degrading activities as reported by Portnoy et al. (2008) RNA 14: 297-309. […] Radiolabeled RNase P RNA was incubated with isolated yeast mitochondria expressing an empty vector or the listed PNPASE constructs. […] A PORIN immunoblot confirms the co-localization of PNPASE WT and mutants in yeast mitochondria. The assembly state of WT and point mutant PNPASE was determined by solubilization with 1% digitonin and separation on a 6-16% BN gel, followed by PNPASE immunoblot. FIG. 11B (upper) show gels of WT and S484A PNPASE purified from yeast mitochondria using immunoprecipitation. FIG. 11B (lower) show gels of WT or S484A mutant PNPASE was incubated with radiolabeled RNase P RNA for 10 min at 25° C. to assess degradation activity. The asterisk marks degradation products. FIG. 11 C (left) is a gel showing the stability of RNase P RNA imported into mitochondria.
The assembly state of PNPASE was also investigated. […] Soluble proteins were separated on a 6-16% BN gel and PNPASE was detected by immunoblot. […] The PNPASE-HisPC were solubilized with 1% digitonin (Dig) or 0.5% dodecylmaltoside (DDM) and the soluble proteins were separated on a 6-16% BN gel and detected by immunoblot.

[2] = biological target: the molecule itself; assay: 1% digitonin, 6-16% blue-native gel, PNPASE immunoblot (self-assembly)
Protocol: Radiolabeled RNase P RNA was incubated with isolated yeast mitochondria expressing an empty vector or the listed PNPASE constructs. […] A PORIN immunoblot confirms the co-localization of PNPASE WT and mutants in yeast mitochondria. The assembly state of WT and point mutant PNPASE was determined by solubilization with 1% digitonin and separation on a 6-16% BN gel, followed by PNPASE immunoblot. FIG. 11B (upper) show gels of WT and S484A PNPASE purified from yeast mitochondria using immunoprecipitation. FIG. 11B (lower) show gels of WT or S484A mutant PNPASE was incubated with radiolabeled RNase P RNA for 10 min at 25° C. to assess degradation activity. The asterisk marks degradation products. FIG. 11 C (left) is a gel showing the stability of RNase P RNA imported into mitochondria.
To determine whether the RNA import or stabilization activity of PNPASE was separable from its RNA processing activities, RNase P RNA import was studied when different PNPASE mutants were expressed in yeast mitochondria (FIG. 11A). The point mutants generated and tested were based on prior studies (Portnoy et al. (2008) RNA 14: 297-309). Mutants D135G and S484A lacked poly-A polymerase and RNA degradation activities in vitro. […] Of the four mutants, PNPASE S484A and R445E/R446E supported the import or stabilization of RNase P RNA, whereas mutants D135G and D544G were defective in this function (FIG. 11A). Based on the prior studies of others, it was expected that mutant D135G would fail to form a trimeric complex from prior studies (Portnoy et al. (2008) RNA 14: 297-309).

Protein | binding result [1] | binding result [2]
human PNPASE (polynucleotide phosphorylase) expressed in yeast mitochondria (enzyme, UniProt Q8TCS8 46-783, looked up, Homo-oligomer of about 240 kDa on blue-native gels; also called hPNP; WT PNPASE) AVAVDLGNRKLEISSGKLARFADGSAVVQSGDTAVMVTAVSKTKPSPSQFMPLVVDYRQKAAAAGRIPTNYLRREIGTSDKEILTSRIIDRSIRPLFPAGYFYDTQVLCNLLAVDGVNEPDVLAINGASVALSLSDIPWNGPVGAVRIGIIDGEYVVNPTRKEMSSSTLNLVVAGAPKSQIVMLEASAENILQQDFCHAIKVGVKYTQQIIQGIQQLVKETGVTKRTPQKLFTPSPEIVKYTHKLAMERLYAVFTDYEHDKVSRDEAVNKIRLDTEEQLKEKFPEADPYEIIESFNVVAKEVFRSIVLNEYKRCDGRDLTSLRNVSCEVDMFKTLHGSALFQRGQTQVLCTVTFDSLESGIKSDQVITAINGIKDKNFMLHYEFPPYATNEIGKVTGLNRRELGHGALAEKALYPVIPRDFPFTIRVTSEVLESNGSSSMASACGGSLALMDSGVPISSAVAGVAIGLVTKTDPEKGEIEDYRLLTDILGIEDYNGDMDFKIAGTNKGITALQADIKLPGIPIKIVMEAIQQASVAKKEILQIMNKTISKPRASRKENGPVVETVQVPLSKRAKFVGPGGYNLKKLQAETGVTISQVDEETFSVFAPTPSAMHEARDFITEICKDDQEQQLEFGAVYTATITEIRDTGVMVKLYPNMTAVLLHNTQLDQRKIKHPTALGLEVGQEIQVKYFGRDPADGRMRLSRKVLQSPATTVVRTLNDRSSIVMGEPISQSSSNSQ | binds | 
human PNPASE mutant D135G (enzyme, UniProt Q8TCS8 46-783, looked up, Point mutants are based on Portnoy et al. (2008); The numbering scheme is not further defined) AVAVDLGNRKLEISSGKLARFADGSAVVQSGDTAVMVTAVSKTKPSPSQFMPLVVDYRQKAAAAGRIPTNYLRREIGTSDKEILTSRIIGRSIRPLFPAGYFYDTQVLCNLLAVDGVNEPDVLAINGASVALSLSDIPWNGPVGAVRIGIIDGEYVVNPTRKEMSSSTLNLVVAGAPKSQIVMLEASAENILQQDFCHAIKVGVKYTQQIIQGIQQLVKETGVTKRTPQKLFTPSPEIVKYTHKLAMERLYAVFTDYEHDKVSRDEAVNKIRLDTEEQLKEKFPEADPYEIIESFNVVAKEVFRSIVLNEYKRCDGRDLTSLRNVSCEVDMFKTLHGSALFQRGQTQVLCTVTFDSLESGIKSDQVITAINGIKDKNFMLHYEFPPYATNEIGKVTGLNRRELGHGALAEKALYPVIPRDFPFTIRVTSEVLESNGSSSMASACGGSLALMDSGVPISSAVAGVAIGLVTKTDPEKGEIEDYRLLTDILGIEDYNGDMDFKIAGTNKGITALQADIKLPGIPIKIVMEAIQQASVAKKEILQIMNKTISKPRASRKENGPVVETVQVPLSKRAKFVGPGGYNLKKLQAETGVTISQVDEETFSVFAPTPSAMHEARDFITEICKDDQEQQLEFGAVYTATITEIRDTGVMVKLYPNMTAVLLHNTQLDQRKIKHPTALGLEVGQEIQVKYFGRDPADGRMRLSRKVLQSPATTVVRTLNDRSSIVMGEPISQSSSNSQ | binds | 
human PNPASE mutant D544G (enzyme, UniProt Q8TCS8 46-783, looked up, Point mutants are based on Portnoy et al. (2008); The numbering scheme is not further defined) AVAVDLGNRKLEISSGKLARFADGSAVVQSGDTAVMVTAVSKTKPSPSQFMPLVVDYRQKAAAAGRIPTNYLRREIGTSDKEILTSRIIDRSIRPLFPAGYFYDTQVLCNLLAVDGVNEPDVLAINGASVALSLSDIPWNGPVGAVRIGIIDGEYVVNPTRKEMSSSTLNLVVAGAPKSQIVMLEASAENILQQDFCHAIKVGVKYTQQIIQGIQQLVKETGVTKRTPQKLFTPSPEIVKYTHKLAMERLYAVFTDYEHDKVSRDEAVNKIRLDTEEQLKEKFPEADPYEIIESFNVVAKEVFRSIVLNEYKRCDGRDLTSLRNVSCEVDMFKTLHGSALFQRGQTQVLCTVTFDSLESGIKSDQVITAINGIKDKNFMLHYEFPPYATNEIGKVTGLNRRELGHGALAEKALYPVIPRDFPFTIRVTSEVLESNGSSSMASACGGSLALMDSGVPISSAVAGVAIGLVTKTDPEKGEIEDYRLLTDILGIEDYNGDMGFKIAGTNKGITALQADIKLPGIPIKIVMEAIQQASVAKKEILQIMNKTISKPRASRKENGPVVETVQVPLSKRAKFVGPGGYNLKKLQAETGVTISQVDEETFSVFAPTPSAMHEARDFITEICKDDQEQQLEFGAVYTATITEIRDTGVMVKLYPNMTAVLLHNTQLDQRKIKHPTALGLEVGQEIQVKYFGRDPADGRMRLSRKVLQSPATTVVRTLNDRSSIVMGEPISQSSSNSQ |  | binds
human PNPASE double mutant R445E/R446E (enzyme, UniProt Q8TCS8 46-783, looked up, Point mutants are based on Portnoy et al. (2008); The numbering scheme is not further defined) AVAVDLGNRKLEISSGKLARFADGSAVVQSGDTAVMVTAVSKTKPSPSQFMPLVVDYRQKAAAAGRIPTNYLRREIGTSDKEILTSRIIDRSIRPLFPAGYFYDTQVLCNLLAVDGVNEPDVLAINGASVALSLSDIPWNGPVGAVRIGIIDGEYVVNPTRKEMSSSTLNLVVAGAPKSQIVMLEASAENILQQDFCHAIKVGVKYTQQIIQGIQQLVKETGVTKRTPQKLFTPSPEIVKYTHKLAMERLYAVFTDYEHDKVSRDEAVNKIRLDTEEQLKEKFPEADPYEIIESFNVVAKEVFRSIVLNEYKRCDGRDLTSLRNVSCEVDMFKTLHGSALFQRGQTQVLCTVTFDSLESGIKSDQVITAINGIKDKNFMLHYEFPPYATNEIGKVTGLNEEELGHGALAEKALYPVIPRDFPFTIRVTSEVLESNGSSSMASACGGSLALMDSGVPISSAVAGVAIGLVTKTDPEKGEIEDYRLLTDILGIEDYNGDMDFKIAGTNKGITALQADIKLPGIPIKIVMEAIQQASVAKKEILQIMNKTISKPRASRKENGPVVETVQVPLSKRAKFVGPGGYNLKKLQAETGVTISQVDEETFSVFAPTPSAMHEARDFITEICKDDQEQQLEFGAVYTATITEIRDTGVMVKLYPNMTAVLLHNTQLDQRKIKHPTALGLEVGQEIQVKYFGRDPADGRMRLSRKVLQSPATTVVRTLNDRSSIVMGEPISQSSSNSQ |  | binds
human PNPASE mutant S484A (enzyme, UniProt Q8TCS8 46-783, looked up, Point mutants are based on Portnoy et al. (2008); The numbering scheme is not further defined) AVAVDLGNRKLEISSGKLARFADGSAVVQSGDTAVMVTAVSKTKPSPSQFMPLVVDYRQKAAAAGRIPTNYLRREIGTSDKEILTSRIIDRSIRPLFPAGYFYDTQVLCNLLAVDGVNEPDVLAINGASVALSLSDIPWNGPVGAVRIGIIDGEYVVNPTRKEMSSSTLNLVVAGAPKSQIVMLEASAENILQQDFCHAIKVGVKYTQQIIQGIQQLVKETGVTKRTPQKLFTPSPEIVKYTHKLAMERLYAVFTDYEHDKVSRDEAVNKIRLDTEEQLKEKFPEADPYEIIESFNVVAKEVFRSIVLNEYKRCDGRDLTSLRNVSCEVDMFKTLHGSALFQRGQTQVLCTVTFDSLESGIKSDQVITAINGIKDKNFMLHYEFPPYATNEIGKVTGLNRRELGHGALAEKALYPVIPRDFPFTIRVTSEVLESNGSSAMASACGGSLALMDSGVPISSAVAGVAIGLVTKTDPEKGEIEDYRLLTDILGIEDYNGDMDFKIAGTNKGITALQADIKLPGIPIKIVMEAIQQASVAKKEILQIMNKTISKPRASRKENGPVVETVQVPLSKRAKFVGPGGYNLKKLQAETGVTISQVDEETFSVFAPTPSAMHEARDFITEICKDDQEQQLEFGAVYTATITEIRDTGVMVKLYPNMTAVLLHNTQLDQRKIKHPTALGLEVGQEIQVKYFGRDPADGRMRLSRKVLQSPATTVVRTLNDRSSIVMGEPISQSSSNSQ |  | binds
